B1: ISL2 (parent)
chain: HYPFLGAMGDHSKKKPGTAMCVGC
B2: TOR1AIP2 (parent)
chain: YTSSQKVSPIQIDGAGRTWQDSDT

Variants of: B1
Test: protein stability index of a GFP-peptide fusion (GPS, HEK-293T) (PSI 1-6); higher = more stable
Conditions: c terminus: a fixed tail appended
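Also: lentivirally expressed fusions sorted by FACS into six bins by GFP to DsRed ratio, PSI derived from sequencing read proportions per bin multiplied by bin number.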

First: HCPFLGAMGDHSKKKPGTAMCVGC [Y2C]
Second: HRPFLGAMGDHSKKKPGTAMCVGC [Y2R]
The protein stability index of the first is lower: 2.53 for the first, 2.94 for the second.

First: HFPFLGAMGDHSKKKPGTAMCVGC [Y2F]
Second: HVPFLGAMGDHSKKKPGTAMCVGC [Y2V]
The protein stability index of the first is lower: 2.55 for the first, 2.6 for the second.

First: HQPFLGAMGDHSKKKPGTAMCVGC [Y2Q]
Second: HPPFLGAMGDHSKKKPGTAMCVGC [Y2P]
The protein stability index of the first is lower: 3.04 for the first, 3.58 for the second.

Going from HKPFLGAMGDHSKKKPGTAMCVGC [Y2K] to HEPFLGAMGDHSKKKPGTAMCVGC [Y2E], the protein stability index rises from 2.83 to 3.62.

Compared with HGPFLGAMGDHSKKKPGTAMCVGC [Y2G], HSPFLGAMGDHSKKKPGTAMCVGC [Y2S] is lower in protein stability index: 3.54 for the first, 3.33 for the second.

Compared with HMPFLGAMGDHSKKKPGTAMCVGC [Y2M], HWPFLGAMGDHSKKKPGTAMCVGC [Y2W] is lower in protein stability index: 2.97 for the first, 2.16 for the second.

Compared with HHPFLGAMGDHSKKKPGTAMCVGC [Y2H], HAPFLGAMGDHSKKKPGTAMCVGC [Y2A] is higher in protein stability index: 2.48 for the first, 3.43 for the second.

Going from HTPFLGAMGDHSKKKPGTAMCVGC [Y2T] to HIPFLGAMGDHSKKKPGTAMCVGC [Y2I], the protein stability index falls from 4.07 to 2.79.

First: HLPFLGAMGDHSKKKPGTAMCVGC [Y2L]
Second: HNPFLGAMGDHSKKKPGTAMCVGC [Y2N]
The protein stability index of the first is lower: 3.37 for the first, 4.08 for the second.

Going from HDPFLGAMGDHSKKKPGTAMCVGC [Y2D] to HYPNLGAMGDHSKKKPGTAMCVGC [F4N], the protein stability index falls from 4.76 to 3.38.

First: HYPPLGAMGDHSKKKPGTAMCVGC [F4P]
Second: HYPLLGAMGDHSKKKPGTAMCVGC [F4L]
The protein stability index of the first is higher: 3.34 for the first, 2.51 for the second.

Going from HYPRLGAMGDHSKKKPGTAMCVGC [F4R] to HYPHLGAMGDHSKKKPGTAMCVGC [F4H], the protein stability index rises from 2.89 to 3.73.

First: HYPTLGAMGDHSKKKPGTAMCVGC [F4T]
Second: HYPILGAMGDHSKKKPGTAMCVGC [F4I]
The protein stability index of the first is higher: 3.19 for the first, 3.03 for the second.

Compared with HYPELGAMGDHSKKKPGTAMCVGC [F4E], HYPDLGAMGDHSKKKPGTAMCVGC [F4D] is lower in protein stability index: 4.72 for the first, 3.83 for the second.

Going from HYPMLGAMGDHSKKKPGTAMCVGC [F4M] to HYPVLGAMGDHSKKKPGTAMCVGC [F4V], the protein stability index falls from 3.48 to 3.3.

Compared with HYPSLGAMGDHSKKKPGTAMCVGC [F4S], HYPKLGAMGDHSKKKPGTAMCVGC [F4K] is lower in protein stability index: 3.48 for the first, 2.92 for the second.

Compared with HYPWLGAMGDHSKKKPGTAMCVGC [F4W], HYPCLGAMGDHSKKKPGTAMCVGC [F4C] is higher in protein stability index: 3.02 for the first, 3.27 for the second.

Going from HYPALGAMGDHSKKKPGTAMCVGC [F4A] to HYPYLGAMGDHSKKKPGTAMCVGC [F4Y], the protein stability index falls from 3.75 to 2.21.

Compared with HYPGLGAMGDHSKKKPGTAMCVGC [F4G], HYPQLGAMGDHSKKKPGTAMCVGC [F4Q] is higher in protein stability index: 3.25 for the first, 3.58 for the second.

First: IYPFLGAMGDHSKKKPGTAMCVGC [H1I]
Second: TYPFLGAMGDHSKKKPGTAMCVGC [H1T]
The protein stability index of the first is lower: 1.95 for the first, 2.69 for the second.

Going from MYPFLGAMGDHSKKKPGTAMCVGC [H1M] to PYPFLGAMGDHSKKKPGTAMCVGC [H1P], the protein stability index rises from 1.82 to 2.75.

First: VYPFLGAMGDHSKKKPGTAMCVGC [H1V]
Second: NYPFLGAMGDHSKKKPGTAMCVGC [H1N]
The protein stability index of the first is lower: 2.11 for the first, 3.84 for the second.

First: WYPFLGAMGDHSKKKPGTAMCVGC [H1W]
Second: EYPFLGAMGDHSKKKPGTAMCVGC [H1E]
The protein stability index of the first is higher: 2.59 for the first, 2.05 for the second.

Going from KYPFLGAMGDHSKKKPGTAMCVGC [H1K] to QYPFLGAMGDHSKKKPGTAMCVGC [H1Q], the protein stability index rises from 2.62 to 2.92.

Compared with DYPFLGAMGDHSKKKPGTAMCVGC [H1D], AYPFLGAMGDHSKKKPGTAMCVGC [H1A] is higher in protein stability index: 3.15 for the first, 3.6 for the second.

First: YYPFLGAMGDHSKKKPGTAMCVGC [H1Y]
Second: SYPFLGAMGDHSKKKPGTAMCVGC [H1S]
The protein stability index of the first is lower: 1.99 for the first, 2.58 for the second.

First: LYPFLGAMGDHSKKKPGTAMCVGC [H1L]
Second: CYPFLGAMGDHSKKKPGTAMCVGC [H1C]
The protein stability index of the first is lower: 2.01 for the first, 2.11 for the second.

Compared with GYPFLGAMGDHSKKKPGTAMCVGC [H1G], FYPFLGAMGDHSKKKPGTAMCVGC [H1F] is lower in protein stability index: 2.64 for the first, 2.02 for the second.

Compared with RYPFLGAMGDHSKKKPGTAMCVGC [H1R], HYPFIGAMGDHSKKKPGTAMCVGC [L5I] is higher in protein stability index: 2.7 for the first, 3.14 for the second.

First: HYPFGGAMGDHSKKKPGTAMCVGC [L5G]
Second: HYPFCGAMGDHSKKKPGTAMCVGC [L5C]
The protein stability index of the first is lower: 3.5 for the first, 3.56 for the second.

Compared with HYPFEGAMGDHSKKKPGTAMCVGC [L5E], HYPFMGAMGDHSKKKPGTAMCVGC [L5M] is lower in protein stability index: 3.78 for the first, 3.01 for the second.

Compared with HYPFAGAMGDHSKKKPGTAMCVGC [L5A], HYPFKGAMGDHSKKKPGTAMCVGC [L5K] is lower in protein stability index: 3.15 for the first, 2.47 for the second.

First: HYPFFGAMGDHSKKKPGTAMCVGC [L5F]
Second: HYPFHGAMGDHSKKKPGTAMCVGC [L5H]
The protein stability index of the first is higher: 3.19 for the first, 2.96 for the second.

Compared with HYPFDGAMGDHSKKKPGTAMCVGC [L5D], HYIFLGAMGDHSKKKPGTAMCVGC [P3I] is lower in protein stability index: 3.75 for the first, 2.26 for the second.

Going from HYHFLGAMGDHSKKKPGTAMCVGC [P3H] to HYAFLGAMGDHSKKKPGTAMCVGC [P3A], the protein stability index rises from 2.31 to 2.32.

First: HYCFLGAMGDHSKKKPGTAMCVGC [P3C]
Second: HYTFLGAMGDHSKKKPGTAMCVGC [P3T]
The protein stability index of the first is higher: 2.84 for the first, 2.04 for the second.

First: HYLFLGAMGDHSKKKPGTAMCVGC [P3L]
Second: HYNFLGAMGDHSKKKPGTAMCVGC [P3N]
The protein stability index of the first is lower: 1.77 for the first, 2.5 for the second.

Compared with HYGFLGAMGDHSKKKPGTAMCVGC [P3G], HYEFLGAMGDHSKKKPGTAMCVGC [P3E] is lower in protein stability index: 3.08 for the first, 3.04 for the second.

First: HYVFLGAMGDHSKKKPGTAMCVGC [P3V]
Second: HYMFLGAMGDHSKKKPGTAMCVGC [P3M]
The protein stability index of the first is lower: 2.06 for the first, 2.18 for the second.

Going from HYYFLGAMGDHSKKKPGTAMCVGC [P3Y] to HYWFLGAMGDHSKKKPGTAMCVGC [P3W], the protein stability index rises from 1.69 to 1.76.

Compared with HYQFLGAMGDHSKKKPGTAMCVGC [P3Q], HYFFLGAMGDHSKKKPGTAMCVGC [P3F] is lower in protein stability index: 3.11 for the first, 1.93 for the second.

First: HYDFLGAMGDHSKKKPGTAMCVGC [P3D]
Second: HYKFLGAMGDHSKKKPGTAMCVGC [P3K]
The protein stability index of the first is lower: 1.96 for the first, 2.15 for the second.

Compared with HYSFLGAMGDHSKKKPGTAMCVGC [P3S], HYRFLGAMGDHSKKKPGTAMCVGC [P3R] is higher in protein stability index: 2.27 for the first, 2.35 for the second.

Variants of: B2
Test: as above
Conditions: c terminus: a fixed tail appended

Going from YTSSQKVSPIQIDGAGRTPQDSDT [W19P] to YTSSQKVSPIQIDGAGRTHQDSDT [W19H], the protein stability index falls from 4.67 to 4.09.

Going from YTSSQKVSPIQIDGAGRTSQDSDT [W19S] to YTSSQKVSPIQIDGAGRTLQDSDT [W19L], the protein stability index falls from 4.76 to 4.11.

Compared with YTSSQKVSPIQIDGAGRTYQDSDT [W19Y], YTSSQKVSPIQIDGAGRTMQDSDT [W19M] is higher in protein stability index: 4.08 for the first, 4.34 for the second.

First: YTSSQKVSPIQIDGAGRTVQDSDT [W19V]
Second: YTSSQKVSPIQIDGAGRTRQDSDT [W19R]
The protein stability index of the first is higher: 4.56 for the first, 4.13 for the second.
